The results in this text go back to article PMC4072508, “Genome-Wide Prediction and Validation of Peptides That Bind Human Prosurvival Bcl-2 Proteins” (PLoS Computational Biology, 2014).

This experiment deals with T1, Mcl-1, Q07820.
T1 chain: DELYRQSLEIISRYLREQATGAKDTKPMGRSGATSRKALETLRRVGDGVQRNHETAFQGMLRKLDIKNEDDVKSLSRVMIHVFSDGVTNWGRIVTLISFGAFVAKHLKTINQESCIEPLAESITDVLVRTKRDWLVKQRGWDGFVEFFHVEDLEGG
As to the kind of experiment: peptide SPOT array, c-Myc-tagged receptor at 1 uM or 100 nM, anti-c-Myc-Cy3.

PFNKEELTAILKFGAEDLFKELEGEE [CHD2] displayed an SPOT signal as a fraction of Bim BH3's signal on the same receptor and array of 0.01.
The same measure for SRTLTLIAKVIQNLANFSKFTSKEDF [SYNGAP1]: 0.08; for VKGAEITGKAIQKGASKLRERIQPEE [SPG20]: 0.02; for AYKTVEVVESIEKISTESIQTYEETA [BFSP1]: 0.01.
As to EITQHNVTELLRDVAAWGRARATGGD [C19orf51], the SPOT signal as a fraction of Bim BH3's signal on the same receptor and array came to 0.02.
PLSNDTIARRIQELANDMEDQLIEQI [SCAND3] had an SPOT signal as a fraction of Bim BH3's signal on the same receptor and array of 0.02.
PSIQLHGAKLLEELGTGLIQQYKPDS [HEATR6]: the SPOT signal as a fraction of Bim BH3's signal on the same receptor and array turned out to be 0.01.
For CKDPKACTILLRGASKEILSEVERNL [CCT3], the SPOT signal as a fraction of Bim BH3's signal on the same receptor and array is 0.02.
Then EQAARVAIEHLDKISDSVLVDIKDTE [CCT5], with 0.01; and KGAKSESAESLRQWAQELEENLNELT [APOL4], with 0.01; and NATHEEVVHLDRNAGDEVTITVEYLR, with 0.01.
KTVVDLVSADLEEVAQKCGLSYKAEA [RAD51L3] yielded an SPOT signal as a fraction of Bim BH3's signal on the same receptor and array of 0.01.
Then EPTMKTLSDDLDEAAKEFQEKHKKEV [NAT10], with 0.01; and MRPEIWIAQELRRIGDEFNAYYARRV [BCL2L11], with 1.
The molecule DPLNDNVATLLHQSSDRFVAELWKDV [MYH10] had an SPOT signal as a fraction of Bim BH3's signal on the same receptor and array of 0.02.
The same measure for MAADTQVSETLKRFAGKVTTASVKER [GCN1L1]: 0.11; for VMGSMFAVISLASIAVYFAKRFKRKN [LRRN1]: 0.13; for LGKRTGTVQVLKRSGRELIENSRDDT [MACF1]: 0.05.
As to FEVDDGTSVLLKKNSQHFLPRWKCEQ [GINS1], the SPOT signal as a fraction of Bim BH3's signal on the same receptor and array was determined as 0.05.
As to SNKIRNLSTTLQTIATKLCRELYSKE [CLEC12A], the SPOT signal as a fraction of Bim BH3's signal on the same receptor and array was found to be 0.17.
For TRELQELARKDQELADASENLLTENT [TXNDC11], the SPOT signal as a fraction of Bim BH3's signal on the same receptor and array is 0.01.
Regarding AEVELEYSRGLEKLAERFSSRGGRLG [ARHGAP4], the SPOT signal as a fraction of Bim BH3's signal on the same receptor and array is 0.02.
The same measure for ITMVPQASEILAKMSELVHRRLRHGS [ZFPM2]: 0.1; for LLPRETVAGALRRLGARGGGKGRKGP [CD2BP2]: 0.13.
In the case of SRTLTLIAKVIQNLANFAKFGNKEEY [RASAL2], the SPOT signal as a fraction of Bim BH3's signal on the same receptor and array is 0.08.
For EEITSDAAYVIQDLATLFEELQREKK [XXXX], the SPOT signal as a fraction of Bim BH3's signal on the same receptor and array is 0.02.
KEYRNQFPEILRRAAAHLECIFRFEL [MAGEE1] yielded an SPOT signal as a fraction of Bim BH3's signal on the same receptor and array of 0.02.
The same measure for QDKILVAVKTLKDASDNARKDFHREA [NTRK2]: 0.02; for ADLRALLCRELRPLGAYMSGRLKVKG [STOML1]: 0.37; for QLQTLPYVGFLEHIGRILDLQLEDNK [SLITRK6]: 0.02.
With LFIPLNISCLLKEGSEHLFDSFEPET [DEPDC5], the SPOT signal as a fraction of Bim BH3's signal on the same receptor and array worked out at 0.02.
QISTRLPSDYIYGIGEQVHKRFRHDL [SI] registered an SPOT signal as a fraction of Bim BH3's signal on the same receptor and array of 0.12.
Then DISALTASNLLKRYAEKYSGVLDSPY [FIGNL2], with 0.03; and PQRQRLLADLLHNVSQNIAAETRAED [DFFB], with 0.02; and NATHEEVVHLLRNALDEVTITVEYLR, with 0.01.
On to EGEEFTVTCTIKDVSSSVYSTWKREN [KIT], for which the SPOT signal as a fraction of Bim BH3's signal on the same receptor and array was found to be 0.02.
The molecule PKPDSDVTQTINTVAYHARPDSDQRF [BARD1] registered an SPOT signal as a fraction of Bim BH3's signal on the same receptor and array of 0.01.
EVQDRLAHKGISQAARYVYQRLINDG [DAGLB] returned an SPOT signal as a fraction of Bim BH3's signal on the same receptor and array of 0.16.
KVRAHHYSVALRRLGQLLGSRPRPPP [FASTK] gave an SPOT signal as a fraction of Bim BH3's signal on the same receptor and array of 0.14.
Take VPAGVSLARNLKRVAEVWMDEYAEYI [GALNT10]: the SPOT signal as a fraction of Bim BH3's signal on the same receptor and array was 0.02.
The same measure for EELLRSSADFLQRLSAILRTSLRFRL [NOTCH3]: 0.11.
The same measure for ERFEGFCVDMLRELAELLRFRYRLRL [GRIK5]: 0.11.
In turn, AAVVLSVATFLYQVAERVRYYREFHH [ACCN3] yielded an SPOT signal as a fraction of Bim BH3's signal on the same receptor and array of 0.03.
In the case of SKVRERYVQMLDQIARQMIDFYKDLV [C1orf125], the SPOT signal as a fraction of Bim BH3's signal on the same receptor and array came out at 0.03.
Consider KKSLAGAAQILLKGAERLTKSVTENQ [MED17], for which the SPOT signal as a fraction of Bim BH3's signal on the same receptor and array was determined as 0.03.
The same measure for LEMVSGSIQVLKHMSGRVGEELDEQG [STX10]: 0.02; for RTGDIALAYRLTDLGSRLLSQLERPL [KIAA1383]: 0.03; for HNATLILSEGLKRAGHQLQHDLFFDT [GLDC]: 0.02.
For the molecule LEGFRKNEEVLKRCAQEYLSRVKKEE [TACC2], the SPOT signal as a fraction of Bim BH3's signal on the same receptor and array is 0.04.
The molecule IIKDQLNVSNIDQVARHLRGLLEEEC [CCDC24] registered an SPOT signal as a fraction of Bim BH3's signal on the same receptor and array of 0.02.
